# Results published in patent US6808930B1, “Therapeutic agents” (priority 1997, dated 2004).
# Legend:
# [1] = test system: A549 cells; assay: Cell surface binding of biotinylated protein, flow cytometry; set-up: species or system human; settings: biotinylated MAL, 30 min; second of three cell types (A549 by order)
# Method: (§1) MAL, human α-lactalbumin (HLA) and immunoglobulin G were biotinylated according to the manufacturer's instructions or labelled with ^125I with the lactoperoxidase method. Proteins were dissolved in PBSA-T buffer (30 mM Na2HPO4, 120 mM NaCl, pH 7.4, with 0.1% NaAzid, 0.05% Tween-20) and 25 μl of protein (25 μg) was incubated with 2 μl of ^125([…]), 2 μl of lactoperoxidase (2.5 mg/ml) and 2 μl of H2O2 (diluted 1:2000 in PBS) for 2 min at room temperature. The reaction was stopped by the addition of 500 μl of PBSA-T. The labelled protein was purified on a PD-10 column. 500 μl fractions in PBSA-T were eluted and fractions containing radioactivity were stored at […]. […] L1210, A549 and HRTEC cells (3×10^6 cells/ml, 50 μl) were incubated in suspension with 50 μl of biotinylated MAL, ALA or BSA for various times at 37° C. The cells were washed with PBS by centrifugation at 320×g for 10 min and the supernatant was discarded. FITC-conjugated streptavidin (diluted 1:50 in PBS) was added and the cells were incubated for 30 min at room temperature. The cells were washed by centrifugation as above, suspended in 300 μl PBS and the surface fluorescence was analysed by flow cytometry on a Coulter Epics Profile II flow cytometer (Coulter Inc.), equipped with a 488 nm argon laser. Green fluorescence was detected with a 525 nm band pass filter. […]
# [2] = test system: HRTEC cells; assay: as above; set-up: species or system human; settings: biotinylated MAL, 30 min; third of three cell types (HRTEC by order)
# Method: as §1
# [3] = test system: digitonin-permeabilized cells; assay: DNA fragmentation in digitonin-permeabilized cells; type: cell-based; settings: 0.4 mg/ml
# Method: Briefly, 1×10^6 cells were incubated in 100 μl of nuclear transport buffer (NTB), with the addition of 1 μg/ml each of leupeptin, aprotinin, antipain, and 40 μg/ml of digitonin for 5 min at room temperature and washed by centrifugation at 320×g for 10 min in NTB. Biotinylated protein (5 μl, 5 mg/ml) was added to the cells in a total volume of 100 μl NTB supplemented with phosphcreatin, creatine phosphokinase and ATP, incubated for various time at RT and washed twice in NTB by centrifugation at 320×g for 10 min. The cells were treated with 0.2% Triton-X100 in NTB for 6 min and washed finally 1:100 dilution of fluorescein-conjugated strepatvidin was added for 30 min at RT and washed. The cells were then inspected by fluorescence microscopy in a Nikon Microphot (Japan) microscope or by laser scanning confocal microscopy in a BioRad MRC-1024 instrument.
# When adding 0.4 mg/ml of MAL to digitonin-permeabilized cells, HMW DNA fragments were formed after 1 hour and oligonucleosomal fragments after 2 hours. […] IgG was not detected in isolated nuclei or in nuclei of digitonin-permabilized cells (FIG. 7a).
# [4] = test system: L1210 cells; assay: DNA fragmentation by gel electrophoresis and FIGE; type: cell-based, murine
# Method: (§2) Remaining cells were analysed for DNA fragmentation.
# [5] = test system: L1210 cells; assay: Cell surface binding of 125I-labelled protein, cell associated radioactivity; set-up: species or system murine; settings: 30 min exposure to 2×10^6 cpm of 125I-labelled protein
# Method: Cell surface binding of MAL was also quantitated as the cell associated radioactivity during the first 30 min after addition of ^125I-labelled MAL to the cells (FIG. 2B). […]
# [6] = test system: A549 cells; assay: Subcellular fractionation of cells exposed to 125I-labelled protein; type: cell-based, human
# Method: (§3) The intracellular distribution of MAL was further analysed in cells exposed to ^125I-labelled MAL with ^[…] α-lactalbumin and IgG as controls (FIG. 4). Subcellular fractions were prepared after mechanic disruption of the cells and the amount of radiolabelled MAL in each fraction was determined in relation to the total cell-associated radioactivity measured prior to disruption of the cells. Fraction P1 contained mostly cell nuclei, P2 contained plasma-Golgi-, ER-membranes and mitochondria, P3 contained small vesicles and the supernatant. Fraction S contained the cytosolic proteins. The purity of the fractions was determined by quantitation of specific markers (DNA, alkaline phosphatase, RNA and catalase).
# (§4) Specifically, cellular subfractionation was performed as described (J. Graham., Isolation of subcellular organelles and membranes., p161-1019. In D. Rickwood ed., Centrifugation, a practical approach, 2nd ed. IRL Press, Washington D.C.). L1210, A549 or HRTEC cells in suspension (3×10^6 cells/ml, 100 μla were incubated with 1×10^6 cpr of ^125I-labelled MAL, ALA or IgG for various times at 37° C. The cells were washed three times with ice-cold PBS and the supernatants were discarded. The cells were suspended in 500 μl of homogenisation buffer (10 mM Tris-HCl, pH 7.8, 5 mM MgCl2 and 2 mM CaCl2 for L1210 cells and 0.15M NaCl, 2 mM EDTA, pH 7.5 for A549 cells), and homogenised by 50 strokes in a Dounce homogenizer (Thomas, Philadelphia, USA) with pestle size 415. Sucrose was added to a final concentration of […] and the homogenate was centrifuged at 100×g for 25 min at RT. The first pellet contained nuclei, large mitochondria and large sheets of plasma membrane. The remaining supernatant was further centrifuged at 12 000×g for 30 min at 4° C. resulting in a second pellet containing mitochondria endoplasmic reticulum, plasma membrane and cytoplasmic organelles. The supernatant was finally centrifuged at 150,000×g for 2 h at 4° C. resulting in a pellet containing small vesicles, endoplasmic reticulum and a supernatant containing cytosolic proteins.
# [7] = test system: HRTEC cells; assay: as above; type: cell-based, human
# Method: as §3, §4
# [8] = test system: L1210 cells; assay: Cell viability by trypan blue exclusion; type: cell-based, murine; settings: L1210 cell line
# Method: as §2
# [9] = test system: L1210 cells; assay: Cell surface binding of biotinylated protein, flow cytometry; set-up: species or system murine; settings: biotinylated MAL
# Method: MAL, human α-lactalbumin (HLA) and immunoglobulin G were biotinylated according to the manufacturer's instructions or labelled with ^125I with the lactoperoxidase method. Proteins were dissolved in PBSA-T buffer (30 mM Na2HPO4, 120 mM NaCl, pH 7.4, with 0.1% NaAzid, 0.05% Tween-20) and 25 μl of protein (25 μg) was incubated with 2 μl of ^125([…]), 2 μl of lactoperoxidase (2.5 mg/ml) and 2 μl of H2O2 (diluted 1:2000 in PBS) for 2 min at room temperature. The reaction was stopped by the addition of 500 μl of PBSA-T. The labelled protein was purified on a PD-10 column. 500 μl fractions in PBSA-T were eluted and fractions containing radioactivity were stored at […]. […] L1210, A549 and HRTEC cells (3×10^6 cells/ml, 50 μl) were incubated in suspension with 50 μl of biotinylated MAL, ALA or BSA for various times at 37° C. The cells were washed with PBS by centrifugation at 320×g for 10 min and the supernatant was discarded. FITC-conjugated streptavidin (diluted 1:50 in PBS) was added and the cells were incubated for 30 min at room temperature. The cells were washed by centrifugation as above, suspended in 300 μl PBS and the surface fluorescence was analysed by flow cytometry on a Coulter Epics Profile II flow cytometer (Coulter Inc.), equipped with a 488 nm argon laser. Green fluorescence was detected with a 525 nm band pass filter. The PMT voltage was initially set to 1250 V and adjusted for day to day variation using calibration with Immunobeads (Coulter).
# [10] = stated for the three cell types
molecule,measurement,setting,value
"MAL: protein complex from human milk casein containing oligomeric forms of α-lactalbumin; the apoptosis-inducing fraction (protein, UniProt P00709 20-142, looked up, oligomeric form from milk casein, protein complex from human milk casein containing oligomeric forms of α-lactalbumin; the apoptosis-inducing fraction) Alpha-lactalbumin: KQFTKCELSQLLKDIDGYGGIALPELICTMFHTSGYDTQAIVENNESTEYGLFQISNKLWCKSSQVPQSRNICDISCDKFLDDDITDDIMCAKKILDIKGIDYWLAHKALCTEKLEQWLCEKL",fluorescence intensity of cell surface binding,[1],13.4 times that of the streptavidin control
same,fluorescence intensity of cell surface binding,[2],8.5 times that of the streptavidin control
same,time after which HMW DNA fragments were formed,[3],1 h
same,time after which oligonucleosomal fragments were formed,[3],2 h
same,time at which fragmentation of DNA was first seen,[4]; 0.3 mg/ml,6 h
same,incubation time after which HMW DNA fragments were observed,[4]; 0.5 mg/ml,30 min
same,incubation time after which oligonucleosome length DNA fragments were detected,[4]; 0.5 mg/ml,three
same,time at which fragmentation of DNA was seen,[4]; 0.75 mg/ml,2 h
same,"cell surface binding, cell associated radioactivity",[5],23 000 cpm
same,total cell associated radioactivity,"[6]; 24 h, denominator in brackets",27000
same,radioactivity in nuclear fraction (P1),"[6]; 24 h, numerator in brackets",13700
same,radioactivity in cytosolic fraction,[6]; final time-point,6800 cpm
same,radioactivity in pellet 2,[6]; final time-point,5100 cpm
same,radioactivity in pellet 3,[6]; final time-point,1400 cpm
same,share of radioactivity in cytosolic fraction,[6]; final time-point,25%
same,share of radioactivity in pellet 2,[6]; final time-point,19%
same,share of radioactivity in pellet 3,[6]; final time-point,5%
same,share of total cell associated radioactivity in nuclear fraction (P1),"[7]; 24 h, 125I-labelled",16%
same,total cell associated radioactivity,"[7]; 24 h, denominator in brackets",14000
same,radioactivity in nuclear fraction (P1),"[7]; 24 h, numerator in brackets",2200
same,radioactivity in cytosolic fraction,[7]; final time-point,8600 cpm
same,radioactivity in pellet 2,[7]; final time-point,2100 cpm
same,radioactivity in pellet 3,[7]; final time-point,1100 cpm
same,share of radioactivity in cytosolic fraction,[7]; final time-point,61%
same,share of radioactivity in pellet 2,[7]; final time-point,15%
same,share of radioactivity in pellet 3,[7]; final time-point,8%
same,sensitivity to MAL-induced apoptosis,[8],highly sensitive
same,fluorescence intensity of cell surface binding,"[9]; 30 min, first of three cell types (L1210 by order)",12.1 times that of the streptavidin control
same,time after which cell surface binding reached a maximum,[9]; [10],30 min
same,time after which cell surface binding was detected,[9]; [10],10 min
